# From patent US8735341
# Test system: TAT-mMDH-eGFP fusion protein
substance,measurement,value
mitochondrial processing peptidases in the matrix contents of rat liver mitochondria,cleavage of the mMDH signal sequence after incubation with mitochondrial matrix contents (gel),The matrix signal peptidase progressively cleaved the mMDH signal sequence at two sites yielding two cleavage products of an estimated molecular mass of 32 kDa and 28.9 kDa
